The source of these data is patent US20080248046A1 (Human Genome Sciences, published 2008).

Test [1] addresses T1, DR5 expressed from an expression construct in 293 cells (immunoprecipitated with Flag M2 antibody affinity … (human, UniProt O14763 52-440)).
T1 construct: The text says only 'the indicated expression constructs'; also called Death Domain Containing Receptor 5
Nature of the test: co-transfection of 293 cells, Flag M2 immunoprecipitation, immunoblot with polyclonal antibody to FADD. The text has this:
(§1) 293 cells were co-transfected with the indicated expression constructs using calcium phosphate precipitation.

Test [2] has as its target T1, DR5 expressed from an expression …. The experiment in a line: co-transfection of 293 cells, Flag M2 immunoprecipitation, immunoblot with HRP-conjugated antibody to myc.
Text: as §1

B1: FADD (other, UniProt Q13158 1-208, looked up)
chain: MDPFLVLLHSVSSSLSSSELTELKFLCLGRVGKRKLERVQSGLDLFSMLLEQNDLEPGHTELLRELLASLRRHDLLRRVDDFEAGAAAGAAPGEEDLCAAFNVICDNVGKDWRRLARQLKVSDTKIDSIEDRYPRNLTERVRESLRIWKNTEKENATVAHLVGALRSCQMNLVADLVQEVQQARDLQNRSGAMSPMSWNSDASTSEAS
notes: also called FADD/MORT1
With B1, the binding result in test [1] is on record as “no binding”.

B2: myc-tagged TRADD (other, UniProt Q15628 1-312, looked up)
chain: MAAGQNGHEEWVGSAYLFVESSLDKVVLSDAYAHPQQKVAVYRALQAALAESGGSPDVLQMLKIHRSDPQLIVQLRFCGRQPCGRFLRAYREGALRAALQRSLAAALAQHSVPLQLELRAGAERLDALLADEERCLSCILAQQPDRLRDEELAELEDALRNLKCGSGARGGDGEVASAPLQPPVPSLSEVKPPPPPPPAQTFLFQGQPVVNRPLSLKDQQTFARSVGLKWRKVGRSLQRGCRALRDPALDSLAYEYEREGLYEQAFQLLRRFVQAEGRRATLQRLVEALEENELTSLAEDLLGLTDPNGGLA
notes: also called myc-TRADD
For B2, the binding result in test [2] is “no binding”.
